Data on one substance can be found in article PMC10505919.

For orientation: Kd means the concentration at which binding is half-saturated.

The assay deals with Chlamydomonas reinhardtii RabL2, wild type (Chlamydomonas reinhardtii). Description: ITC. Background: ITC needs no label: the signal is the heat of the interaction.

As to “Chlamydomonas reinhardtii CEP19 residues 1-208 (domain or fragment)”, the equilibrium dissociation constant (Kd) was found to be 12.7 µM.
